B1: Azoarcus group I ribozyme (parent)
chain: GUGCCUUGCGCCGGGAAACCACGCAAGGGAUGGUGUCAAAUUCGGCGAAACCUAAGCGCCCGCCCGGGCGUAUGGCAACGCCGAGCCAAGCUUCGGCGCCUGCGCCGAUGAAGGUGUAGAGACUAGACGGCACCCACCUAAGGCAAACGCUAUGGUGAAGGCAUAGUCCAGGGAGUGGCGAAAGUCACACAAACCGG

35 variants from the RNAGym collection of RNA variant scans (doi:10.1093/molbev/msab373) can be followed below.

The data set covers variants of B1. In words: reverse-splicing fitness (ratio to wild type); higher = more active; in vitro selection; Mg2+ level not given. In a few lines: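 An in vitro group I ribozyme library with randomized positions was T7-transcribed and gel-purified. In triplicate, 10 pmol RNA in EPPS pH 7.5 was reacted with 50 pmoles of a 30-nt RNA substrate for 1 h at 37 °C across several added MgCl2 levels (1–48 mM), then stopped with EDTA. Products were reverse transcribed from a substrate-complementary primer, PCR-amplified and sequenced (HiSeq 4000). Fitness is a variant's read proportion after selection over that before, normalised to wild type.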
Take C82U A111G A145G C150A C169A U176C: the reverse-splicing fitness came to 0.0247.

On to A111U A120G A145U C169U, for which the reverse-splicing fitness came to 0.164.

With C82A A111C C150U U176G, the reverse-splicing fitness stood at 0.0134.

As for C82G A145G U176A, the reverse-splicing fitness was 0.341.

Consider A111C A120U A145G U176G, for which the reverse-splicing fitness came to 0.0786.

Regarding A111C A120G A145C C150G C169U U176G, the reverse-splicing fitness was 0.004.

As for A111G A120C A145C C150A C169A U176C, the reverse-splicing fitness was found to be 0.0045.

Turning to C82A A111G A120U C150G C169A U176A, the reverse-splicing fitness came out at 0.00738.

For the variant C82U A111C A120U A145U C169G U176G, the reverse-splicing fitness came to 0.00187.

Regarding A111G A120U A145G C150U C169A U176G, the reverse-splicing fitness was found to be 0.00246.

For the variant C82U A111G A120U A145G C169U U176A, the reverse-splicing fitness stood at 0.00337.

As to A111U A120U A145C, the reverse-splicing fitness came to 0.518.

For the variant C82G A120C A145C C150G U176G, the reverse-splicing fitness was found to be 0.00422.

Turning to C82A A120C A145C C150G C169G U176C, the reverse-splicing fitness came to 0.00971.

On to C82G C150G C169U U176C, for which the reverse-splicing fitness was determined as 0.0132.

For C82G A111G A120C C150U C169G U176G, the reverse-splicing fitness is 0.00572.

As for A111G A120U A145C C150G C169A U176C, the reverse-splicing fitness was 0.00245.

Take C82U A120C A145G C150G C169G U176A: the reverse-splicing fitness was found to be 0.00987.

In the case of C82G A120G A145C U176C, the reverse-splicing fitness came out at 0.0158.

Regarding A111G A120C A145C C150G C169G U176G, the reverse-splicing fitness was 0.0036.

On to A111G A145U C150G U176G, for which the reverse-splicing fitness came to 0.0305.

C82A A111G A145C C150U C169U U176A: the reverse-splicing fitness is 0.0126.

For the variant C82U A111C A120C A145U C150A U176C, the reverse-splicing fitness was 0.0135.

Take A111U A120C A145G C150G C169A U176G: the reverse-splicing fitness is 0.00732.

In the case of C82A A111C A120G A145G C150U C169G U176C, the reverse-splicing fitness was found to be 0.0182.

On to A120C A145C C150A C169A U176G, for which the reverse-splicing fitness worked out at 0.00372.

Take C82A A111G A145C C150U C169G: the reverse-splicing fitness was 0.00745.

Turning to C82U C169A U176A, the reverse-splicing fitness was determined as 0.0127.

As for C82G A111C A145U C150G C169A, the reverse-splicing fitness was found to be 0.00796.

As to C82U A111C A120U C150U C169A U176C, the reverse-splicing fitness was determined as 0.00372.

As for C82A A120C A145U C150G C169U U176C, the reverse-splicing fitness is 0.00999.

As for A111U A120U A145G C150U U176A, the reverse-splicing fitness stood at 0.18.

As for C82G A111C A120C A145U C150U C169G U176A, the reverse-splicing fitness turned out to be 0.0133.

As to C82A A111U A120C A145C C169A U176G, the reverse-splicing fitness amounted to 0.00573.

With A111U A120G A145G C150U U176G, the reverse-splicing fitness was determined as 0.00725.
